Numbering of substitutions follows the chain as printed. In names and notes the source's numbering stands. Where two headings read alike, the source gives them in different places.
B1: F7.44.20-H1 (scFv, not shown: small tags and cut ends)
scFv: EVQLVQSGAEVKKPGASVKVSCKASGYTFTDYNMDWVRQAPGQGLEWMGDINPSTGGTIYNQKFNGRVTMTEDKSTSTVYMELSSLRSEDTAVYYCARRRIGTGYFDVWGQGTTVTVSSGGGGSGGGGSGGGGSEIVLTQSPDFQSVTPKEKVTITCSASSSVISSYLSWYQQKPDQSPKLLIYRTSNLASGVPSRFSGSGSGTDFTLTINSLEAEDAATYYCHQWSSFPYTFGGGTKVEIK
notes: also called S009-F7.44.20 humanized antibody VH1 + VL1
B2: F7.44.20-H2 (scFv, not shown: small tags and cut ends)
scFv: B1 scFv with F206Y
notes: also called S009-F7.44.20 humanized antibody VH1 + VL2
B3: F7.44.20-H6 (scFv, not shown: small tags and cut ends)
scFv: B1 scFv with N65Q, F206Y
notes: also called S009-F7.44.20 humanized antibody VH1a + VL2
B4: F7.44.20-H10 (scFv, not shown: small tags and cut ends)
scFv: B1 scFv with T76A, F206Y
notes: also called S009-F7.44.20 humanized antibody VH2 + VL2
B5: F7.44.20-H13 (scFv, not shown: small tags and cut ends)
scFv: B1 scFv with N65S, T76A
notes: also called S009-F7.44.20 humanized antibody VH2a + VL1
B6: F7.44.20-H14 (scFv, not shown: small tags and cut ends)
scFv: B1 scFv with N65S, T76A, F206Y
notes: also called S009-F7.44.20 humanized antibody VH2a + VL2
B7: F7.44.20-H3 (scFv, not shown: small tags and cut ends)
scFv: EVQLVQSGAEVKKPGASVKVSCKASGYTFTDYNMDWVRQAPGQGLEWMGDINPSTGGTIYNQKFNGRVTMTEDKSTSTVYMELSSLRSEDTAVYYCARRRIGTGYFDVWGQGTTVTVSSGGGGSGGGGSGGGGSEIVLTQSPATLSLSPGERATLSCSASSSVISSYLSWYQQKPGQSPRLLIYRTSNLASGIPARFSGSGSGTDYTLTISSLEPEDFAVYYCHQWSSFPYTFGGGTKVEIK
notes: also called S009-F7.44.20 humanized antibody VH1 + VL3
B8: F7.44.20-H4 (scFv, not shown: small tags and cut ends)
scFv: B7 scFv with Q177S
notes: also called S009-F7.44.20 humanized antibody VH1 + VL4
B9: F7.44.20-H7 (scFv, not shown: small tags and cut ends)
scFv: B7 scFv with N65Q
notes: also called S009-F7.44.20 humanized antibody VH1a + VL3
B10: F7.44.20-H8 (scFv, not shown: small tags and cut ends)
scFv: B7 scFv with N65Q, Q177S
notes: also called S009-F7.44.20 humanized antibody VH1a + VL4
B11: F7.44.20-H11 (scFv, not shown: small tags and cut ends)
scFv: B7 scFv with T76A
notes: also called S009-F7.44.20 humanized antibody VH2 + VL3
B12: F7.44.20-H12 (scFv, not shown: small tags and cut ends)
scFv: B7 scFv with T76A, Q177S
notes: also called S009-F7.44.20 humanized antibody VH2 + VL4
B13: F7.44.20-H15 (scFv, not shown: small tags and cut ends)
scFv: B7 scFv with N65S, T76A
notes: also called S009-F7.44.20 humanized antibody VH2a + VL3
B14: F7.44.20-H16 (scFv, not shown: small tags and cut ends)
scFv: B7 scFv with N65S, T76A, Q177S
notes: also called S009-F7.44.20 humanized antibody VH2a + VL4
B15: F7.44.20-H5 (scFv, not shown: small tags and cut ends)
scFv: B1 scFv with N65Q
notes: also called S009-F7.44.20 humanized antibody VH1a + VL1
B16: F7.44.20-H9 (scFv, not shown: small tags and cut ends)
scFv: B1 scFv with T76A
notes: also called S009-F7.44.20 humanized antibody VH2 + VL1
B17: Tab110 (scFv, not shown: small tags and cut ends)
scFv: QQQLEESGGGLVKPEGSLTLTCKASGFDLGFYFYACWVRQAPGKGLEWIACIYTAGSGSTYYASWAKGRFTISKASSTTVTLQMTSLAAADTATYFCARSTANTRSTYYLNLWGPGTLVTVSSGGGGSGGGGSGGGGSDVVMTQTPASVSEPVGGTVTIKCQASQRISSYLSWYQQKPGQRPKLLIFGASTLASGVPSRFKGSGSGTEYTLTISDLECADAATYYCQSYAYFDSNNWHAFGGGTEVVV
notes: also called YP218 VH-(G4S)3-VL-his antibody; positive control
B18: F7.33.24-H1 (scFv, not shown: small tags and cut ends)
scFv: EVQLVQSGAEVKKPGASVKVSCKASGYTFTSYWMHWVRQAPGQRLEWMGNVNPSNGGSNYNEKFKNRVTITVDKSASTAYMELSSLRSEDTAVYYCAPHYIGSRPGFAYWGQGTLVTVSSGGGGSGGGGSGGGGSDIVMTQSPDSLAVSLGERATINCKASQNVGTNIAWYQQKPGQSPKALIYSASYRYSGVPDRFSGSGSGTDFTLTISSLQAEDVAVYYCQQYNSYPLTFGGGTKVEIK
notes: also called S009-F7.33.24 humanized antibody VH1 + VL1
B19: F7.33.24-H4 (scFv, not shown: small tags and cut ends)
scFv: B18 scFv with N55S
notes: also called S009-F7.33.24 humanized antibody VH1a + VL1
B20: F7.33.24-H7 (scFv, not shown: small tags and cut ends)
scFv: B18 scFv with R44G
notes: also called S009-F7.33.24 humanized antibody VH2 + VL1
B21: F7.33.24-H10 (scFv, not shown: small tags and cut ends)
scFv: B18 scFv with R44G, G56A
notes: also called S009-F7.33.24 humanized antibody VH2a + VL1
B22: F7.33.24-H3 (scFv, not shown: small tags and cut ends)
scFv: EVQLVQSGAEVKKPGASVKVSCKASGYTFTSYWMHWVRQAPGQRLEWMGNVNPSNGGSNYNEKFKNRVTITVDKSASTAYMELSSLRSEDTAVYYCAPHYIGSRPGFAYWGQGTLVTVSSGGGGSGGGGSGGGGSDIVMTQTPLSLSVTPGQPASISCKASQNVGTNIAWYQQKPGQSPQALIYSASYRYSGVPDRFSGSGSGTDFTLKISRVEAEDVGVYYCQQYNSYPLTFGGGTKVEIK
notes: also called S009-F7.33.24 humanized antibody VH1 + VL3
B23: F7.33.24-H6 (scFv, not shown: small tags and cut ends)
scFv: B22 scFv with N55S
notes: also called S009-F7.33.24 humanized antibody VH1a + VL3

How the values were obtained:
[1] = target: T1, human MSLN on OVCAR3 tumor cells (human, UniProt Q13421 296-598); experiment: FACS, OVCAR3 cells
T1 construct: whole, on cells; also called human MSLN protein
T1 sequence (Q13421 other isoform, or with tags, fused parts or gaps): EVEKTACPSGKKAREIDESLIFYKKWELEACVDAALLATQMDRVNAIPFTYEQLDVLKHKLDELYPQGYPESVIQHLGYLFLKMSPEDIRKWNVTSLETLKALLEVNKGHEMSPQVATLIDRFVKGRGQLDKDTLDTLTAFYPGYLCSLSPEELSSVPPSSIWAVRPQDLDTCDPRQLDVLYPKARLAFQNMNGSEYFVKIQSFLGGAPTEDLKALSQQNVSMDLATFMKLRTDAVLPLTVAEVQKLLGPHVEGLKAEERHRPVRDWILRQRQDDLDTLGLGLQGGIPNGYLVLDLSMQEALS

[2] = target: T2, human MSLN-R3 on HEK293T-hMSLN-R3 recombinant cells (human, UniProt Q13421 487-606); experiment: FACS, HEK293T-hMSLN-R3 cells
T2 construct: the C-terminal limit is uncertain; also called human MSLN-R3 membrane protein
T2 sequence (Q13421 495-614): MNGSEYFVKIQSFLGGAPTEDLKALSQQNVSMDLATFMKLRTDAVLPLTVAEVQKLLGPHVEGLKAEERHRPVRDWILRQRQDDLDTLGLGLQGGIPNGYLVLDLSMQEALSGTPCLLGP

[3] = target: T3, monkey MSLN on HEK293T-monkey MSLN recombinant cells (monkey); experiment: FACS, HEK293T-monkey MSLN cells
T3 construct: Full-length precursor as transfected; processing on the cell is not described; also called HEK293-monkey MSLN
T3 chain: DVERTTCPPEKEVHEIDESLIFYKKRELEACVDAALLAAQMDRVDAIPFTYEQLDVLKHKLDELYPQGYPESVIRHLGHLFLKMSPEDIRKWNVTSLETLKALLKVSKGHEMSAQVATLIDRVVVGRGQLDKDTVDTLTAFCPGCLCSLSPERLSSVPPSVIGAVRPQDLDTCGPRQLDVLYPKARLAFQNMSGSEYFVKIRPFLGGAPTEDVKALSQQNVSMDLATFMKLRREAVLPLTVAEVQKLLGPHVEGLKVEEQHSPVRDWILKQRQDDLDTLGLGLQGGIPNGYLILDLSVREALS

[4] = target: T4, human MSLN-hFc recombinant protein (human, UniProt Q13421 296-580); experiment: SPR (Biacore 8K), MSLN-hFc captured, antibody injected
T4 construct: Captured by an anti-human IgG antibody on the chip; also called human MSLN protein; Acro MSN-H5253
T4 sequence (Q13421 other isoform, or with tags, fused parts or gaps): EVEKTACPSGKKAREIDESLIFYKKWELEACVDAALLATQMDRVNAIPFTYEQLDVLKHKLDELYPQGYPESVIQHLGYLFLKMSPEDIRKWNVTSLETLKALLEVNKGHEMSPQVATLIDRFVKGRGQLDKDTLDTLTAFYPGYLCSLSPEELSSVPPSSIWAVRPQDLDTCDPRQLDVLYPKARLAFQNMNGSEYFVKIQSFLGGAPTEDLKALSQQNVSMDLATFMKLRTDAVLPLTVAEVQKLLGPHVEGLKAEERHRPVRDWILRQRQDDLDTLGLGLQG

[5] = target: T2, human MSLN-R3 on HEK293T-hMSLN-R3 …; experiment: FACS, HEK293T-hMSLN-R3 cells; remark: listed apart in the source
[6] = target: T3, monkey MSLN on HEK293T-monkey MSLN …; experiment: FACS, HEK293T-monkey MSLN cells
[7] = target: T1, human MSLN on OVCAR3 tumor cells; experiment: FACS, OVCAR3 cells; remark: listed apart in the source

Row | Binder | EC50 [1] [nM] | Maximum_MFI [1] [MFI] | EC50 [2] [nM] | Maximum_MFI [2] [MFI] | EC50 [3] [nM] | Maximum_MFI [3] [MFI] | Kd [4] [nM] | koff [4] [s⁻¹] | kon [4] [M⁻¹ s⁻¹] | Maximum_MFI [5] [MFI] | EC50 [6] [nM] | Maximum_MFI [6] [MFI] | EC50 [7] [nM] | Maximum_MFI [7] [MFI] | EC50 [5] [nM]
1 | B1 | 0.4 | 1820 | 1.72 | 1750 | 6.05 | 6550 |  |  |  |  |  |  |  |  | 
2 | B2 | 0.99 | 1820 | 1.71 | 1690 | 5.5 | 6950 |  |  |  |  |  |  |  |  | 
3 | B3 | 1.6 | 1830 | 3.44 | 1540 | 15 | 6020 |  |  |  |  |  |  |  |  | 
4 | B4 | 1.21 | 2320 | 0.88 | 1470 | 4.25 | 9020 |  |  |  |  |  |  |  |  | 
5 | B5 | 1.33 | 2150 | 0.63 | 1600 | 2.35 | 9320 |  |  |  |  |  |  |  |  | 
6 | B6 | 1.83 | 2140 | 1.52 | 1440 | 7.37 | 8130 |  |  |  |  |  |  |  |  | 
7 | B7 | 0.69 | 1810 | 1.57 | 1490 | 7.34 | 7000 |  |  |  |  |  |  |  |  | 
8 | B8 | 1.26 | 1680 | 2.64 | 1470 | 10.4 | 6450 |  |  |  |  |  |  |  |  | 
9 | B9 | 1.11 | 1840 | 2.12 | 1510 | 9.24 | 6130 |  |  |  |  |  |  |  |  | 
10 | B10 | 1.04 | 1880 | 1.95 | 1650 | 7.09 | 6320 |  |  |  |  |  |  |  |  | 
11 | B11 | 0.61 | 1950 | 1.14 | 1680 | 3.74 | 7210 |  |  |  |  |  |  |  |  | 
12 | B12 | 1.5 | 2100 | 2.88 | 1410 | 10.3 | 6670 |  |  |  |  |  |  |  |  | 
13 | B13 | 1.77 | 1930 | 0.91 | 1500 | 4.47 | 8090 |  |  |  |  |  |  |  |  | 
14 | B14 | 1.66 | 1650 | 2.23 | 1440 | 12.2 | 5980 | 1.85 | 0.000679 | 367000 |  |  |  |  |  | 
15 | B15 | 1 | 1960 | 0.94 | 1700 | 4.55 | 7780 | 0.709 | 0.000313 | 442000 |  |  |  |  |  | 
16 | B16 | 1.61 | 2220 | 1.67 | 1560 | 8.05 | 7460 | 0.464 | 0.000208 | 449000 |  |  |  |  |  | 
17 | B17 |  |  |  | 461 |  |  |  |  |  | 461 |  |  |  |  | 
18 | B18 |  |  |  |  |  |  |  |  |  | 2190 | 4.16 | 9050 | 1.05 | 2180 | 2.55
19 | B19 |  |  |  |  |  |  |  |  |  | 1960 | 5.23 | 9380 | 3.04 | 2230 | 2.15
20 | B20 |  |  |  |  |  |  |  |  |  | 1650 | 5 | 8820 | 2 | 2190 | 1.61
21 | B21 |  |  |  |  |  |  |  |  |  | 1560 | 3.94 | 8620 | 3.04 | 2090 | 1.1
22 | B22 |  |  |  |  |  |  |  |  |  | 1970 | 5.33 | 8310 | 2.06 | 2370 | 2.89
23 | B23 |  |  |  |  |  |  |  |  |  | 1540 | 3.54 | 8440 | 1.08 | 2300 | 1.01
